The supplement of paper PMC9112550, “Optimization of the antimicrobial peptide Bac7 by deep mutational scanning” (BMC Biology, 2022)

Tested on: Escherichia coli TOP10
Assay: shrunken log2 fold change of peptide-encoding DNA abundance (4.5 h post-induction vs induction); higher = less antimicrobial activity (less host growth inhibition)
Conditions: time post-induction: 4.5 h; library: site-saturation at positions 5, 18, 19, 20
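Also: peptides expressed intracellularly from a pBAD plasmid library in pooled LB shake-flask culture, induced with 0.3% L-arabinose, DNA abundance read by NGS, three biological replicates, DESeq2 with apeglm shrinkage.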

Row | Sequence | shrunken log2 fold change
1 | RRIRMRPPRLPRPRPRPVITPRP | 0.043
2 | RRIRQRPPRLPRPRPRPVEAPRP | 0.341
3 | RRIRCRPPRLPRPRPRPNEDPRP | 0.0261
4 | RRIRWRPPRLPRPRPRPMDTPRP | 0.128
5 | RRIRGRPPRLPRPRPRPMAWPRP | 0.743
6 | RRIRARPPRLPRPRPRPHPDPRP | 0.395
7 | RRIRKRPPRLPRPRPRPLYWPRP | 0.149
8 | RRIRSRPPRLPRPRPRPLWQPRP | 0.311
9 | RRIRDRPPRLPRPRPRPWIPPRP | -0.0565
10 | RRIRSRPPRLPRPRPRPMMGPRP | 0.0137
11 | RRIRCRPPRLPRPRPRPCDRPRP | -0.351
12 | RRIRPRPPRLPRPRPRPDVNPRP | -0.233
13 | RRIRKRPPRLPRPRPRPQQCPRP | -0.371
14 | RRIRPRPPRLPRPRPRPANIPRP | -0.617
15 | RRIRRRPPRLPRPRPRPHTYPRP | 0.573
16 | RRIRSRPPRLPRPRPRPVLIPRP | -0.000674
17 | RRIRARPPRLPRPRPRPLRGPRP | 0.954
18 | RRIRKRPPRLPRPRPRPEFQPRP | 0.0241
19 | RRIRYRPPRLPRPRPRPLFWPRP | -0.214
20 | RRIRPRPPRLPRPRPRPKHHPRP | -0.228
21 | RRIRHRPPRLPRPRPRPCLSPRP | 0.0289
22 | RRIRGRPPRLPRPRPRPANQPRP | 0.329
23 | RRIRARPPRLPRPRPRPFLYPRP | -0.0961

Row | Sequence | shrunken log2 fold change
24 | RRIRYRPPRLPRPRPRPSVHPRP | -0.284
25 | RRIRRRPPRLPRPRPRPNQPPRP | -0.0317
26 | RRIRERPPRLPRPRPRPVYGPRP | -0.375
27 | RRIRMRPPRLPRPRPRPTDCPRP | -0.0353
28 | RRIRCRPPRLPRPRPRPQMGPRP | -0.273
29 | RRIRVRPPRLPRPRPRPLDRPRP | -0.117
30 | RRIRWRPPRLPRPRPRPGNQPRP | -0.225
31 | RRIRWRPPRLPRPRPRPRPIPRP | 0.434
32 | RRIRIRPPRLPRPRPRPCVSPRP | -0.012
33 | RRIRSRPPRLPRPRPRPQSVPRP | -0.138
34 | RRIRARPPRLPRPRPRPFKEPRP | -0.0239
35 | RRIRDRPPRLPRPRPRPYYFPRP | -0.209
36 | RRIRNRPPRLPRPRPRPKQTPRP | 0.317
37 | RRIRHRPPRLPRPRPRPKRCPRP | -0.0661
38 | RRIRNRPPRLPRPRPRPHVRPRP | -0.12
39 | RRIRYRPPRLPRPRPRPRSKPRP | -0.439
40 | RRIRPRPPRLPRPRPRPCSLPRP | 0.527
41 | RRIRWRPPRLPRPRPRPWWGPRP | 0.0568
42 | RRIRWRPPRLPRPRPRPYGPPRP | -0.0264
43 | RRIRYRPPRLPRPRPRPTMMPRP | -1.19
44 | RRIRRRPPRLPRPRPRPEQVPRP | -0.0118
45 | RRIRYRPPRLPRPRPRPQKPPRP | -0.0745
46 | RRIRVRPPRLPRPRPRPRMGPRP | 1.86

Row | Sequence | shrunken log2 fold change
47 | RRIRFRPPRLPRPRPRPWIFPRP | -0.00568
48 | RRIRMRPPRLPRPRPRPWCVPRP | 0.0904
49 | RRIRDRPPRLPRPRPRPYQVPRP | -0.183
50 | RRIRDRPPRLPRPRPRPSTHPRP | -0.247
51 | RRIRVRPPRLPRPRPRPRKNPRP | 0.0784
52 | RRIRWRPPRLPRPRPRPQECPRP | -0.0185
53 | RRIRWRPPRLPRPRPRPLICPRP | 0.803
54 | RRIRLRPPRLPRPRPRPHRPPRP | -0.189
55 | RRIRYRPPRLPRPRPRPEWDPRP | -0.0176
56 | RRIRDRPPRLPRPRPRPFDEPRP | 0.0788
57 | RRIRRRPPRLPRPRPRPIYIPRP | -0.184
58 | RRIRQRPPRLPRPRPRPRFCPRP | -0.16
59 | RRIRKRPPRLPRPRPRPDQCPRP | 0.0219
60 | RRIRHRPPRLPRPRPRPQPEPRP | -0.0374
61 | RRIRFRPPRLPRPRPRPVSIPRP | 0.0109
62 | RRIRFRPPRLPRPRPRPFKPPRP | -0.147
63 | RRIRCRPPRLPRPRPRPAKAPRP | 0.162
64 | RRIRYRPPRLPRPRPRPSSLPRP | -0.0385
65 | RRIRSRPPRLPRPRPRPPRSPRP | 0.483
66 | RRIRNRPPRLPRPRPRPRWPPRP | 0.286
67 | RRIRHRPPRLPRPRPRPRRHPRP | 0.153
68 | RRIRQRPPRLPRPRPRPEDAPRP | -0.132
69 | RRIRIRPPRLPRPRPRPAKRPRP | 0.0281

Row | Sequence | shrunken log2 fold change
70 | RRIRWRPPRLPRPRPRPCSLPRP | -0.0592
71 | RRIRPRPPRLPRPRPRPVYTPRP | -0.234
72 | RRIRWRPPRLPRPRPRPLAYPRP | 0.0203
73 | RRIRVRPPRLPRPRPRPDVFPRP | -0.0779
74 | RRIRPRPPRLPRPRPRPMATPRP | 0.323
75 | RRIRVRPPRLPRPRPRPWNCPRP | 0.0131
76 | RRIRIRPPRLPRPRPRPLIWPRP | -0.236
77 | RRIRIRPPRLPRPRPRPFLAPRP | -0.493
78 | RRIRGRPPRLPRPRPRPLDNPRP | 0.244
79 | RRIRDRPPRLPRPRPRPWVMPRP | -0.167
80 | RRIRCRPPRLPRPRPRPECIPRP | 0.0623
81 | RRIRARPPRLPRPRPRPECIPRP | 0.781
82 | RRIRLRPPRLPRPRPRPPETPRP | 0.0221
83 | RRIRIRPPRLPRPRPRPRFTPRP | -0.043
84 | RRIRLRPPRLPRPRPRPGFMPRP | -0.382
85 | RRIRGRPPRLPRPRPRPETGPRP | 0.81
86 | RRIRERPPRLPRPRPRPAIMPRP | -0.299
87 | RRIRTRPPRLPRPRPRPHFKPRP | -0.307
88 | RRIRERPPRLPRPRPRPPLIPRP | -0.435
89 | RRIRVRPPRLPRPRPRPGFAPRP | 0.299
90 | RRIRMRPPRLPRPRPRPGIPPRP | 0.726
91 | RRIRDRPPRLPRPRPRPANGPRP | -0.0137
